The values that follow come from patent publication US20170119913A1.

The target in test [1] is T1, delta 2 (DOP) (h), delta2 opioid receptor (human (printed as (h))), P41143.
T1 chain: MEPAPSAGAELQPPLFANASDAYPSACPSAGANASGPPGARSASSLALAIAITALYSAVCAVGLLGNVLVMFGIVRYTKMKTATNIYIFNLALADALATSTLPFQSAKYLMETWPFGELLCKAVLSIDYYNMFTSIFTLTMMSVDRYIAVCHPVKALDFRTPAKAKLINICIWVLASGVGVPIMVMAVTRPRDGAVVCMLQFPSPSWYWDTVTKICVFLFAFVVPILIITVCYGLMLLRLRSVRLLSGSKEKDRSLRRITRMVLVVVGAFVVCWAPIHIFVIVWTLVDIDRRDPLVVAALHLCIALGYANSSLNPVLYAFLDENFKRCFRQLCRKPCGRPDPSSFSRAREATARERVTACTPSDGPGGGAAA
Nature of the test: Cerep ExpresSProfile radioligand competition binding, reference compound (agonist radioligand). On the technique in general: Loss of bound radioactivity is the signal in a displacement assay; it reports binding, not function.

The target in test [2] is NTR1 on HT29 or NTR1-expressing HEK293 cells (UniProt P30989). Nature of the test: cell-based or functional assay.
Test [3] deals with neurotensin receptor 1 (NTR1), human, prepared from CHO cells recombinantly expressing the human receptor (human) (UniProt P30989). Nature of the test: radioligand binding assay (Cerep 0109): displacement of 0.05 nM 125I-(Tyr3-neurotensin) from human NTR1 prepared from CHO cells.

Numbered stars: 1 amine (or outer) side, 2 acyl side, 3 side chain; on linkers, the order of the positions; unused ones are H or OH. Square brackets hold non-standard residues; d marks the D form. * marks the point of attachment. DOTA = O=C(O)CN1CCN(CC(=O)O)CCN(CC(=O)*)CCN(CC(=O)O)CC1; Ttds = O=C(CCC(=O)[*:2])NCCCOCCOCCOCCCN[*:1]; Glutaryl = O=C(CCCC(=O)[*:2])[*:1]; Tle = CC(C)(C)[C@H](N)C(=O)O; 1206 = not defined here; GABA = NCCCC(=O)O

Sequence of NTR1 on HT29 or NTR1-expressing HEK293 cells (P30989 whole entry): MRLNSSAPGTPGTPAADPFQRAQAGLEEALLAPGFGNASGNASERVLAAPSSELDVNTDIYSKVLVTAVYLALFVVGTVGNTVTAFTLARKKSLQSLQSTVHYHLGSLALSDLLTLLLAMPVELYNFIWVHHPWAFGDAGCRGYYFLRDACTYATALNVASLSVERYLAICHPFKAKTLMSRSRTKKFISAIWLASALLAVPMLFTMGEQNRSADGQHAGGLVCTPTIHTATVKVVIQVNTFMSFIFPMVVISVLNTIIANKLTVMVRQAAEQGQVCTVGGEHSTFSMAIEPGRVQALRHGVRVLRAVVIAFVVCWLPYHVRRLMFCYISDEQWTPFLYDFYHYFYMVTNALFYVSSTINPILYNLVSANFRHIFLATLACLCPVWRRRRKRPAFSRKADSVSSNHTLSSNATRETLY
Sequence of neurotensin receptor 1 (NTR1), human, prepared from CHO cells recombinantly expressing the human receptor (human) (P30989 whole entry): as above

YCGFC (modifications not checked) [DPDPE]: the Ki (as a rule, a dissociation constant, usually derived from enzyme kinetics or from competition with a known ligand) in test [1] came to 2 nM.

In test [2], {1206-Glutaryl}-[Ttds]K(DOTA)[Ttds][GABA][dR]RPY[Tle]L-OH (reading uncertain) [1206-Glutar-Ttds-Lys(DOTA)-Ttds-GABA-arg-Arg-Pro-Tyr-Tle-Leu-OH (17)] gave an Agonistic Effect EC50 [nM], functional Ca2+ mobilisation assay of 7 nM and an Antagonistic Effect IC50 [nM], functional Ca2+ mobilisation assay of 3.4 nM. In test [3], the IC50 (usually the concentration that gives 50% inhibition) was 0.32 nM.

In test [2], {1206-Glutaryl}-[Ttds]K(DOTA)[Ttds][GABA]RRPY[Tle]L-OH (reading uncertain) [1206-Glutar-Ttds-Lys(DOTA)-Ttds-GABA-Arg-Arg-Pro-Tyr-Tle-Leu-OH (16)] had an Agonistic Effect EC50 [nM], functional Ca2+ mobilisation assay of 4 nM and an Antagonistic Effect IC50 [nM], functional Ca2+ mobilisation assay of 3.8 nM. For the same molecule, the IC50 in test [3] turned out to be 0.14 nM.

For {1206-Glutaryl}-[Ttds][Ttds][Ttds]K(DOTA)[Ttds][Ttds][Ttds][GABA][dR]RPY[Tle]L-OH (reading uncertain) [1206-Glutar-Ttds3-Lys(DOTA)-Ttds3-GABA-arg-Arg-Pro-Tyr-Tle-Leu-OH (18)], in test [2], the Agonistic Effect EC50 [nM], functional Ca2+ mobilisation assay is > 50000 nM and the Antagonistic Effect IC50 [nM], functional Ca2+ mobilisation assay is 3.8 nM. In addition, the 50% inhibitory concentration (IC50) in test [3] stood at 2.7 nM.
